Numbering of substitutions follows the chain as printed. Numbers in names are those of the source.
What was measured:
[1] = biological target: T1, monovalent hVISTA-ECD (amino acids 32-193 of SEQ ID NO: 1 with a 7xHis tail) (human, UniProt Q9H7M9 33-193); assay: SPR 37C, 100 nM hVISTA-ECD, pH 7.4, 6.7, 6.0
T1 construct: analyte of the SPR assays; also called huVISTA-His; hVISTA-His

[2] = biological target: T2, human VISTA on cells (human monocytes, AML3 cells, 293T/HEK293 cells expressing full-length human VISTA) (human, UniProt Q9H7M9 33-311); assay: cell-based or functional assay
T2 sequence: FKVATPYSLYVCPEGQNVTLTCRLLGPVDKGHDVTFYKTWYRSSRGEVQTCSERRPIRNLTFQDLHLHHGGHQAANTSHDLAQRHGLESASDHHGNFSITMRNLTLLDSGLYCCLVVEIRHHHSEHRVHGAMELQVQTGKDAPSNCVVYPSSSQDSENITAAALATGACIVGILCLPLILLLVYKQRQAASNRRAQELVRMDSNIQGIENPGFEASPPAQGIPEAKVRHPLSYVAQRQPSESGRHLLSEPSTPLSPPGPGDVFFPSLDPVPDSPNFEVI

[3] = biological target: T3, human VISTA-Fc (hVISTA extracellular domain, amino acids 33-194 of SEQ ID NO: 1, linked to an Fc domain) (human, UniProt Q9H7M9 33-194); assay: BLI
T3 construct: also called WT VISTA; hVISTAFc
T3 sequence: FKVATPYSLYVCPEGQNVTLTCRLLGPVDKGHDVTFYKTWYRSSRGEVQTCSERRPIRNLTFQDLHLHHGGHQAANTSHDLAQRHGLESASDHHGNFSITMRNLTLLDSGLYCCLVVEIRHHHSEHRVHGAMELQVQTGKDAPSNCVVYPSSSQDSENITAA

[4] = biological target: T4, avidin (ThermoFisher Scientific catalog #21128) (UniProt P02701 25-152); assay: SPR 25C pH 6.0 and 7.4
Protocol: (§1) The binding specificity of the '029, '761 and '767 clones to VISTA and to other high pI proteins was evaluated by SPR at neutral and acidic pH using a Biacore® T100 instrument (GE Healthcare). Protein A (ThermoFisher Scientific catalog #21181) was diluted to 20 ug/ml in 10 mM sodium acetate pH 4.5 and immobilized onto flow cells of a CM3 biosensor following the manufacturer's amine coupling protocol (GE Healthcare), targeting 800 RU immobilization density of Protein A per flow cell. SPR experiments were conducted at 25° C. using PBST (137 mM sodium chloride, 2.7 mM potassium chloride, 10 mM phosphate buffer, 0.05% Tween 20) running buffer at pH 7.4 and 6.0. Antibodies (formatted as IgG1.3 antibodies) were diluted to 50 nM in PBST pH 7.4, and were captured across active biosensor flow cells at 5 ul/min for 60 seconds. […] Two 15 second injections of 10 mM glycine pH 1.5 were used to regenerate the Protein A capture surface between assay cycles. Reference flow cell and 0 nM blank-subtracted sensorgrams were inspected using Biacore® T200 Evaluation Software v.2.0. The results are shown in […]

[5] = biological target: BSA (Calbiochem catalog #126593) (UniProt P02769 25-607); assay: SPR 25C pH 6.0 and 7.4
Protocol: as §1

cyno VISTA-ECD (His tag) [6] = biological target: T5, cyno VISTA-ECD (His tag) (cynomolgus macaque, UniProt Q9H7M9 33-193 (human entry)); assay: SPR 37C pH 7.4
T5 construct: also called cyVISTA-His
T5 chain: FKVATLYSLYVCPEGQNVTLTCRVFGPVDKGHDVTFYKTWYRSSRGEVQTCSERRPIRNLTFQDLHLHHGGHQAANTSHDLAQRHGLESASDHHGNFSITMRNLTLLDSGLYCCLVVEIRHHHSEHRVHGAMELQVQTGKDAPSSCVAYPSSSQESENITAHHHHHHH

[7] = biological target: T1, monovalent hVISTA-ECD (amino acids …); assay: SPR 37C pH 7.4
cyno VISTA-ECD (His tag) [8] = biological target: T5, cyno VISTA-ECD (His tag); assay: SPR 37C pH 6.0
[9] = biological target: T1, monovalent hVISTA-ECD (amino acids …); assay: SPR 37C pH 6.0
cyno VISTA-ECD (His tag) [10] = biological target: T5, cyno VISTA-ECD (His tag); assay: SPR 37C
[11] = biological target: T1, monovalent hVISTA-ECD (amino acids …); assay: SPR 37C
[12] = biological target: T4, avidin (ThermoFisher Scientific catalog …); assay: SPR pH 6.0 and 7.4
[13] = biological target: T1, monovalent hVISTA-ECD (amino acids …); assay: SPR (FIG. 19C)

T4 sequence (P02701 25-152 limits assumed): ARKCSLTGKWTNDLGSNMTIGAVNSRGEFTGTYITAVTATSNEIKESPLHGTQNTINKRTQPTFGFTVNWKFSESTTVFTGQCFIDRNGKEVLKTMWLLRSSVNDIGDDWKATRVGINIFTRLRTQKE
Sequence of BSA (Calbiochem catalog #126593) (P02769 25-607 limits assumed): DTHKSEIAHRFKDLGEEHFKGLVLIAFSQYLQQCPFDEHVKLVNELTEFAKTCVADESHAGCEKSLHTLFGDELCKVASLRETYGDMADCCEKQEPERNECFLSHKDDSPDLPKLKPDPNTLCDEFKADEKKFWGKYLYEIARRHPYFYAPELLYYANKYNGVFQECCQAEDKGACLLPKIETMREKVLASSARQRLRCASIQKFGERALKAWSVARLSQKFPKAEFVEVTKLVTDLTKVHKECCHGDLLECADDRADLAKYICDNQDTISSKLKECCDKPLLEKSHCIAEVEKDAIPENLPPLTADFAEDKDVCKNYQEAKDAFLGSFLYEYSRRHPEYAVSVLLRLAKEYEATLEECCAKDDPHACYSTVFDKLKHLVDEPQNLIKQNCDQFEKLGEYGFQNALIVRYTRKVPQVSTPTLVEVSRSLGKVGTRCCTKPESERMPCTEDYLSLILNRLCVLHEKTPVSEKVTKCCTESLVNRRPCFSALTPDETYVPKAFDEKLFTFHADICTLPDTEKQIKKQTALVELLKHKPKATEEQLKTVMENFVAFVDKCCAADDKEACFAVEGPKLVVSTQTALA

B1: VISTA.5 (VISTA antibody 1, non-blocking antibody) (antibody, V domains shown)
VH: AVQLQESGPGLVRPSQSLSLTCTVTDYSITSDYAWNWIRQFPGSKLEWLGFIGYSGNTNYNPSLESRISITRHTSKNQFFLHLNSMTTEDTATYYCARSLYGGSHWYFDVWGAGTTVTVSS
VL: DIVLTQSPASLAVSLGQRATISCRGSESVEYYGTILMQWYQQKPGQPPKLLIYGASNVESGVPARFSGSGSGTDFSLNIHPVEEDDIAMYFCQQSRKVPWTFGGGTKLEIK
notes: also called VISTA mAb 1; mAb 1
Which results are given for B1?
binding result [1]: binds; EC50, AML3 viability (Cell Titer Glo), endolysosome-dependent antibody drug conjugate killing assay [2]: 0.485 mg/L

B2: P1-061029.IgG1.3 (antibody)
heavy: EVQLVESGGGLVQPGKSLRLSCAASGFTLDDYAMHWVRQAPGKGLEWVSGINWNSANIGYADSVKGRFTISRDNAKNSLYLQMNSLRTEDTALYYCAKVPGYSGGWIDAFDVWGQGTMVTVSSASTKGPSVFPLAPSSKSTSGGTAALGCLVKDYFPEPVTVSWNSGALTSGVHTFPAVLQSSGLYSLSSVVTVPSSSLGTQTYICNVNHKPSNTKVDKRVEPKSCDKTHTCPPCPAPEAEGAPSVFLFPPKPKDTLMISRTPEVTCVVVDVSHEDPEVKFNWYVDGVEVHNAKTKPREEQYNSTYRVVSVLTVLHQDWLNGKEYKCKVSNKALPAPIEKTISKAKGQPREPQVYTLPPSREEMTKNQVSLTCLVKGFYPSDIAVEWESNGQPENNYKTTPPVLDSDGSFFLYSKLTVDKSRWQQGNVFSCSVMHEALHNHYTQKSLSLSPG
light: not shown
notes: also called P1-061029 hIgG1.3f; parent
Does B2 bind [3]?
Result: binds

Does B2 bind [4]?
Result: no binding (tested: <=10 RU, 100-10 nM)

Does B2 bind [5]?
Result: no binding (tested: <=10 RU, 100-10 nM)

What about the Kd (cyno VISTA-ECD (His tag) [6]) of the same binder?
The Kd was 0.047 µM.

And the koff (cyno VISTA-ECD (His tag) [6])?
The koff was 0.0067 s⁻¹.

What about the kon (cyno VISTA-ECD (His tag) [6]) of the same binder?
The kon was 140000 M⁻¹ s⁻¹.

What about the Kd [7] of the same binder?
Its Kd is 0.062 µM.

What about the koff [7] of the same binder?
Its koff is 0.0075 s⁻¹.

What about the kon [7] of the same binder?
Its kon is 120000 M⁻¹ s⁻¹.

And the Kd (cyno VISTA-ECD (His tag) [8])?
The Kd was 0.01 µM.

And the koff (cyno VISTA-ECD (His tag) [8])?
The koff was 0.0062 s⁻¹.

What about the kon (cyno VISTA-ECD (His tag) [8]) of the same binder?
Its kon is 620000 M⁻¹ s⁻¹.

What about the Kd [9] of the same binder?
Its Kd is 0.0068 µM.

What about the koff [9] of the same binder?
Its koff is 0.0066 s⁻¹.

And the kon [9]?
The kon was 980000 M⁻¹ s⁻¹.

What about the “KD ratio (7.4/6)” value (cyno VISTA-ECD (His tag) [10]) of the same binder?
Its value is 4.7.

And the “kd ratio (7.4/6)” value (cyno VISTA-ECD (His tag) [10])?
Its value is 1.1.

What about the “KD ratio (7.4/6)” value [11] of the same binder?
Its value is 9.1.

And the “kd ratio (7.4/6)” value [11]?
The value was 1.1.

B3: VISTA.4.IgG1.3 (antibody, V domains shown)
VH: QVQLVESGGGLVKPGGSLRLSCAASGFTFSDYYMSWIRQAPGKGLEWVSYISNSGSPIYYADSVKGRFTISRDNAKNSLYLQMNSLRAEDTAVYYCARDLPGWYFDLWGRGTLVTVSS
VL: EIVLTQSPATLSLSPGERATLSCRASQSVSSYLAWYQQKPGQAPRLLIYDASNRATGIPARFSASGSGTDFTLTISSLEPEDFAVYYCQQRNNWPRTFGQGTKVEIKR
notes: also called 41F11
Does B3 bind [12]?
Result: no binding

B4: P1-072315-1 (41F11_VH_T28P/Y50W/S55E/L96E/Y100E VK_A64G) (antibody, V domains shown)
VH: B3 VH with T28P, Y50W, S56E, L100E, Y104E
VL: EIVLTQSPATLSLSPGERATLSCRASQSVSSYLAWYQQKPGQAPRLLIYDASNRATGIPARFSGSGSGTDFTLTISSLEPEDFAVYYCQQRNNWPRTFGQGTKVEIK
Does B4 bind [12]?
Result: no binding

B5: P1-070976 (41F11_VH_T28P/Y50W/S55E/D95H/L96E/P97E/Y100E; VK_A64G), IgG1.3 (antibody, V domains shown)
VH: B3 VH with T28P, Y50W, S56E, D99H, L100E, P101E, Y104E
VL: B3 VL with A64G
notes: also called acidic pH selective VISTA.4 progeny
For B5, which “fold higher affinity at pH 6.0 than at pH 7.4” value [13] is on record?
Its value is 200 fold.

Does B5 bind [12]?
Result: no binding

Source: patent publication US20220073617A1 (Five Prime, published 2022)
